The supplement of paper PMC12042874
± gives the uncertainty stated by the source.

assay: amyloid nucleation score (Sup35N fusion, yeast selection) (log enrichment); library NNK1; higher = more nucleation; inactive = no reads after selection
Method in brief: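 Sup35N was fused to peptides of 20 random codons and expressed in psi-negative yeast, which were induced with 100 μM copper sulfate for 24 hours and then grown on medium lacking adenine and uracil for 7 days at 30°C. Plasmid inserts from input and output were sequenced on Illumina. The nucleation score is the DiMSum log enrichment of output over input reads, centred on the mode score of non-aggregating sequences. Sequences with under 100 input reads were left out, and random libraries had three technical output replicates.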

Substance	amyloid nucleation score
ICVMSPGMESCGLVFGAWYT	0.61 ± 0.56
EMNVSILKHAYSQALSFARW	-0.068 ± 0.45
SHERLNQCSNFSSWQNRGGL	-0.588 ± 0.73
WSIEWFYSMSYARIDME	-1.23 ± 0.79
NLCVVREWYSKSCWPRFLRV	-0.274 ± 0.56
ATWTAWRHVAHFWPWAHAKS	0.936 ± 0.56
QSVWEYNGTFSLRYRDMTGY	0.477 ± 0.65
QVNNPSTWLMRNQIDQKLLR	-1.8 ± 1.7
VSYTVSFSFFLFLFNWHSYV	0.147 ± 0.65
WSVDIGLRGLIMRMKYCEFR	-1.01 ± 0.54
VSLLVSICLLRLSLVSI	0.259 ± 0.58
VAVTITYAICDTLILFIEGG	4.08 ± 0.1
NGCTIVGVTKGSLNH	1.04 ± 0.24
ELTRGLWRFGAEWWATQQKT	0.364 ± 0.31
RADGLHASETVGSLL	-1.13 ± 2.7
LNGWIVEGLNNADLTRRRWV	0.235 ± 0.6
ILVTLHMTCLRRSRNTLSFY	-0.45 ± 1.5
TCSLNLYLDSDVFLCLCCLW	5.65 ± 0.074
YRRVKM	-0.089 ± 0.53
FINDYMIQYSLHLQVLMST	3.95 ± 0.074
VKMNVYYLIILNLWSYVMLG	-0.994 ± 1.4
FNPLRVNYGLWDRSAR	0.248 ± 0.83

Substance	amyloid nucleation score
VGKITESLLEQLKARHLFCH	4.41 ± 0.058
CDCTSRGK	-0.407 ± 1.5
AFPRARGYMG	-0.575 ± 0.37
CIGRCMWI	1.81 ± 0.61
NFYSGICMICLGT	7.307 ± 0.065
FYYYSEFLGPIVYPQHDLLL	-0.1 ± 1.1
ACSPGTVVKDITDTSK	0.45 ± 0.63
KRGLAVLGAPKQMQTACWGQ	0.229 ± 0.83
LWLRLRFVCKYRV	1.9 ± 0.59
MWHERVGDVTVAHSNVGVMI	3.85 ± 0.082
AIALQV	-1.18 ± 0.94
KNCPALRSFSSKDSSSFVWS	-0.23 ± 0.43
IRRYPAFFFNVYPSTSMFCS	-1.21 ± 0.88
RSCITESRRHIWRTGMVEKW	0.716 ± 0.48
KYGEVLLVTYTNP	0.577 ± 0.53
GGLGTPFFHAPSHMWVKW	-0.551 ± 0.55
STLFSWNRRNCDTHVLLVPW	inactive
WFAVWRIRCVRSDVANWMLS	0.283 ± 0.37
KQCGVKWFMAG	0.437 ± 1.4
GVFRLMDRNNI	0.653 ± 0.61
LIPCGPLFLFMQTNIDRANM	7.845 ± 0.044
EAYFFEFIKYLSAPAGSGGN	-0.855 ± 0.98

Substance	amyloid nucleation score
VPCDIYQCFYLSG	5.25 ± 0.094
TSRIFRCCCNCWSHA	1.31 ± 0.11
WFSVMLRYEY	1.71 ± 0.2
VQNTWVILRKL	4.43 ± 0.095
SRYALLIYVLEDGCLAVLKP	0.562 ± 1.2
LVHVGSQHKTFTPCSMEFLI	inactive
CRMTGSFKSTCRSKGLASCS	0.002 ± 0.3
CVPSVRNSVMW	-0.181 ± 0.88
SHPRTYPWDSTDFVWLS	-0.549 ± 1.2
IARYSTVYPVPHNCRNHKHS	0.15 ± 1.1
ITVRAISMWWRDSS	0.263 ± 0.4
SLGVSDI	-1.16 ± 0.41
VAFYGFITKINLEIY	0.578 ± 0.4
VSFRMVLNYLQVGYSWGHWR	0.395 ± 0.44
IKILLNWHV	-0.628 ± 1.7
ISNIF	1.67 ± 0.45
YSIPNDLNPSCKSHLMPRGH	1.23 ± 0.41
SVVLCMNCGGCLMEIKGGGY	4.89 ± 0.096
HVFCQRGCCERRLKIYISVS	-1.45 ± 0.57
FSQVSEEIIGVFLSISYCIL	2.93 ± 0.074
VNSSKFKRVIYLV	-0.453 ± 0.27
TTGSLVCKAAPIWFVPTPAF	-1.09 ± 0.84

Substance	amyloid nucleation score
FLTAAWTSGHDGREFSPRPF	2.61 ± 0.16
RRLTRIIKAKL	0.018 ± 0.78
YFLICSLWPYVLPYCVCRFV	-0.728 ± 0.5
WYIVGSFTGITLVVNLALNL	inactive
SYLFVWFTSLLSDPQ	-0.716 ± 1.2
QMNGWVCCFSQGQRMFVLLM	0.977 ± 0.47
NLKSSYSAIPLFFIWCGTSV	0.114 ± 0.31
KHCTRFRVRRMYYDVTKILL	inactive
ASLSPNTASYNLELPSIMHM	0.283 ± 0.71
VDLLFDTNCNSF	inactive
YHVMD	inactive
SHFGNPLKIPVFNRWTQHKA	-0.263 ± 0.49
MFFGWGT	1.19 ± 0.34
MFMSWVDFNLD	0.066 ± 0.29
SCLIFVSHSTEGYYSTPTFP	2.26 ± 0.26
DTLHSNCCGSWPYDSSKRNV	0.95 ± 0.33
LWCVLHDVGGGSYSLDRYTG	0.379 ± 0.83
RKCLESTTRSFLAVRS	3.3 ± 0.097
HVCSFLQAGAHWRRVAVCAG	0.124 ± 0.73
LEWANDLVNCSQRIM	-0.331 ± 0.88
TCLHYAVCMRSLVSQSALFV	-0.771 ± 1.7
